B1: ADC-A (antibody, human IgG1, kappa, V domains shown)
VH: QVQLQESGPGLVKPSQTLSLTCTVSGYAFTAYNIHWVRQAPGQGLEWMGSFDPYDGGSSYNQKFKDRLTISKDTSKNQVVLTMTNMDPVDTATYYCARGWYYFDYWGHGTLVTVSS
VL: DIVMTQTPLSLPVTPGEPASISCRASKSISKYLAWYQQKPGQAPRLLIYSGSTLQSGIPPRFSGSGYGTDFTLTINNIESEDAAYYFCQQHDESPYTFGEGTKVEIKR
modifications: MC-VC-PAB-MMAE bonded via cysteine residues of the antibody (chain and positions not stated); MC-VC-PAB-MMAE bonded via cysteine residues of the antibody (chain and positions not stated); DAR 3.89 to 5.09
notes: Antibody-drug conjugate of Ab1; also called Ab1-MC-VC-PAB-MMAE
B2: ADC-R (antibody, human IgG1, kappa, V domains shown)
VH: B1 VH
VL: B1 VL
modifications: deglycosylated with PNGase F; azido-PEG3-amine put on glutamine residues by microbial transglutaminase, then DBCO-PEG4-VC-PAB-DMEA-PNU-159682 via a triazole (chain and positions not stated); DAR 2.1
notes: also called Ab1-DBCO-PEG4-VC-PAB-DMEA-PNU-159682

Tests used:
[1] = molecular target: T1, human receptor tyrosine kinase like orphan receptor 1 (ROR1) (human, UniProt Q01973 30-937); experiment: flow cytometry on Jeko-1 cells (FIG. 3B)
T1 construct: whole, on cells; Target in all assays is endogenous ROR1 on human tumor cell lines; the cell line is named under assay; also called cell surface ROR1
T1 sequence (Q01973 30-937): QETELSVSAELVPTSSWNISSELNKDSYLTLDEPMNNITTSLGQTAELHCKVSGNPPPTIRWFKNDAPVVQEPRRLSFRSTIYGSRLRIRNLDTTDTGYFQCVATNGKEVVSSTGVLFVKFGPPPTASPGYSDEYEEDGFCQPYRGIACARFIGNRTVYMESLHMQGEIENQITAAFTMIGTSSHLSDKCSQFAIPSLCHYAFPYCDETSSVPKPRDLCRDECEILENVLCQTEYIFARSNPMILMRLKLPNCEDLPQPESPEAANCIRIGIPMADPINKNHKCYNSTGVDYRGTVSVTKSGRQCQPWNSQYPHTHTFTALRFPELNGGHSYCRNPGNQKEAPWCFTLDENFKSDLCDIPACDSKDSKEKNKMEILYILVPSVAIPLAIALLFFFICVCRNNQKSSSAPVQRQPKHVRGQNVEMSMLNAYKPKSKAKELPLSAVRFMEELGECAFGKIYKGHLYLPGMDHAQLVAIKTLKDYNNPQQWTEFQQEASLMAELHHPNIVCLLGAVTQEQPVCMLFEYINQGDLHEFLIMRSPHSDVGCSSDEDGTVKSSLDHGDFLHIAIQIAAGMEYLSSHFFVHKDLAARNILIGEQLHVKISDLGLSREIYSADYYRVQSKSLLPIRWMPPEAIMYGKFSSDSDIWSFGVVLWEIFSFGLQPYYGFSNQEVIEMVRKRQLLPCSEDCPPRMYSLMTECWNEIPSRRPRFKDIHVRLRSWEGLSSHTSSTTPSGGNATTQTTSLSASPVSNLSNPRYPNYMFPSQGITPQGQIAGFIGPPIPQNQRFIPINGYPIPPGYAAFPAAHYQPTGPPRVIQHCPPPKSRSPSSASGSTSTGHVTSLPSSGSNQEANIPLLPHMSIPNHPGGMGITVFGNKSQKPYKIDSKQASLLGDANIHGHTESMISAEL

[2] = molecular target: T1, human receptor tyrosine kinase like …; experiment: binding to Jeko-1 cells; column 'ADC-A Binding KD (nM)', method not described
[3] = molecular target: T1, human receptor tyrosine kinase like …; experiment: flow cytometry on Jeko-1 cells (FIG. 3A)
[4] = molecular target: T1, human receptor tyrosine kinase like …; experiment: cell-based or functional assay
[5] = molecular target: T1, human receptor tyrosine kinase like …; experiment: flow cytometry on MDA-MB-231 cells
[6] = molecular target: T1, human receptor tyrosine kinase like …; experiment: binding to MDA-MB-231 cells; column 'ADC-A Binding KD (nM)', method not described
[7] = molecular target: T1, human receptor tyrosine kinase like …; experiment: flow cytometry on Jeko-1 cells
[8] = molecular target: T1, human receptor tyrosine kinase like …; experiment: binding to Jeko cells; column 'ADC-R Binding KD (nM)', method not described

Row | Binder | EC50 [1] | Kd [2] | EC50 [3] | IC50, cell viability (CellTiter-Glo, 72 h), A2008 cells [4] | IC50, cell viability (CellTiter-Glo, 72 h), Bt549 cells [4] | IC50, cell viability (CellTiter-Glo, 72 h), DOHH2 cells [4] | IC50, cell viability (CellTiter-Glo, 72 h), HBL-1 cells [4] | IC50, cell viability (CellTiter-Glo, 72 h), HCC1187 cells [4] | IC50, cell viability (CellTiter-Glo, 72 h), JHOM1 cells [4] | IC50, cell viability (CellTiter-Glo, 72 h), MDA-MB-468 cells [4] | IC50, cell viability (CellTiter-Glo, 72 h), SKOvr3 cells [4] | IC50, cell viability (CellTiter-Glo, 72 h), TMD-8 cells [4] | IC50, cell viability (CellTiter-Glo, 72 h), TOV112D cells [4] | EC50 [5] | Kd [6] | EC50 [7] | Kd [8]
1 | B1 | 0.0221 µg/mL | 0.1 nM | 0.0216 µg/mL | 125 nM | 13.5 nM | 129 nM | 118 nM | 6.8 nM | 15.6 nM | 23.5 nM | 62.6 nM | 122 nM | 62.4 nM | 0.0485 µg/mL | 0.32 nM | 0.017 µg/mL | –
2 | B2 | – | – | – | – | – | – | – | – | – | – | – | – | – | – | – | – | 0.25 nM

— patent USRE50631 (VELOSBIO, dated 2025)
